Experimental data as given in patent US20200087373A1 (UNIVERSITY OF COPENHAGEN, published 2020).
Several values for one entry are separate records, joined by “and”; a condition that tells them apart may be missing. Equal entries are not always repeated. Ends that are not written are not given here. * marks the point of attachment. C16 diacid = O=C(O)CCCCCCCCCCCCCCC(=O)*; Stearoyl = CCCCCCCCCCCCCCCCCC(=O)*; Palmitoyl = CCCCCCCCCCCCCCCC(=O)*

Experiments:
human GIP receptor [1] = target: T1, human GIP receptor (human, UniProt P48546 22-466); assay: cell-based or functional assay
T1 sequence (looked up): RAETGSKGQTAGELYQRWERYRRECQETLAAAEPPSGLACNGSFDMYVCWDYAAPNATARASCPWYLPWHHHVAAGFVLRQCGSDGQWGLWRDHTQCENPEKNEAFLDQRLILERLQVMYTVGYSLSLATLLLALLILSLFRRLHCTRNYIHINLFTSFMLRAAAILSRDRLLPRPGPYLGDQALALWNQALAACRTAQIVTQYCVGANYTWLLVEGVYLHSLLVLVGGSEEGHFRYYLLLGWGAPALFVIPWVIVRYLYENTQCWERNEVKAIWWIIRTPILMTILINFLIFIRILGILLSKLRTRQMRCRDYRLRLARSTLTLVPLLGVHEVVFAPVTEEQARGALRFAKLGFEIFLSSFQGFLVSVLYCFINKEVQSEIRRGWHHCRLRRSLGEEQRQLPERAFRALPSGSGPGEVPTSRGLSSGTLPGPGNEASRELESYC

human GIP receptor [2] = target: T1, human GIP receptor; assay: 125I-hGIP competition binding, COS-7 cells expressing hGIPR;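 note: nonspecific binding taken as radioligand bound by untransfected cells, binding buffer with or without 2% HSA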
Experimental: (§1) After incubation, the cells were washed twice in ice-cold binding buffer (+/−2% HSA) and lysed using 200 mM NaOH with 1% SDS for 30 min. Nonspecific binding was determined as the binding of radioactive ligand to untransfected cells.

human GIP receptor [3] = target: T1, human GIP receptor; assay: 125I-hGIP competition binding, COS-7/hGIPR, 0.1% casein;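 note: nonspecific binding defined as radioligand binding measured on untransfected cells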
Experimental: as §1

Binder | cAMP agonism (human GIP receptor [1]) [nM] | cAMP agonism, EC50 (log) (human GIP receptor [1]) | cAMP agonism, Emax (human GIP receptor [1]) | cAMP antagonism (human GIP receptor [1]) [nM] | cAMP antagonism, log (human GIP receptor [1]) [log M] | IC50 (human GIP receptor [2]) [nM] | log IC50 (human GIP receptor [2]) | IC50 (human GIP receptor [3]) [nM] | logIC50 (human GIP receptor [3]) [log M]
TFISDYSIAMDKIK(Stearoyl)QQDFVNWLLAQK-NH2 (N-terminus assumed; SMILES CCCCCCCCCCCCCCCCCC(=O)NCCCC[C@H](NC(=O)[C@@H](NC(=O)[C@H](CCCCN)NC(=O)[C@H](CC(=O)O)NC(=O)[C@H](CCSC)NC(=O)[C@H](C)NC(=O)[C@@H](NC(=O)[C@H](CO)NC(=O)[C@H](Cc1ccc(O)cc1)NC(=O)[C@H](CC(=O)O)NC(=O)[C@H](CO)NC(=O)[C@@H](NC(=O)[C@H](Cc1ccccc1)NC(=O)[C@@H](N)[C@@H](C)O)[C@@H](C)CC)[C@@H](C)CC)[C@@H](C)CC)C(=O)N[C@@H](CCC(N)=O)C(=O)N[C@@H](CCC(N)=O)C(=O)N[C@@H](CC(=O)O)C(=O)N[C@@H](Cc1ccccc1)C(=O)N[C@H](C(=O)N[C@@H](CC(N)=O)C(=O)N[C@@H](Cc1c[nH]c2ccccc12)C(=O)N[C@@H](CC(C)C)C(=O)N[C@@H](CC(C)C)C(=O)N[C@@H](C)C(=O)N[C@@H](CCC(N)=O)C(=O)N[C@@H](CCCCN)C(N)=O)C(C)C) [AT161 [hGIP(5-30)NH2[H18K]-C18/18]] | 1060 | -6 log M | 7 | 252 | -6.6 |  |  |  | 
K(C16 diacid)FISDYSIAMDKIHQQDFVNWLLAQK-NH2 (N-terminus assumed; SMILES CC[C@H](C)[C@H](NC(=O)[C@H](CO)NC(=O)[C@H](Cc1ccc(O)cc1)NC(=O)[C@H](CC(=O)O)NC(=O)[C@H](CO)NC(=O)[C@@H](NC(=O)[C@H](Cc1ccccc1)NC(=O)[C@@H](N)CCCCNC(=O)CCCCCCCCCCCCCCC(=O)O)[C@@H](C)CC)C(=O)N[C@@H](C)C(=O)N[C@@H](CCSC)C(=O)N[C@@H](CC(=O)O)C(=O)N[C@@H](CCCCN)C(=O)N[C@H](C(=O)N[C@@H](Cc1c[nH]cn1)C(=O)N[C@@H](CCC(N)=O)C(=O)N[C@@H](CCC(N)=O)C(=O)N[C@@H](CC(=O)O)C(=O)N[C@@H](Cc1ccccc1)C(=O)N[C@H](C(=O)N[C@@H](CC(N)=O)C(=O)N[C@@H](Cc1c[nH]c2ccccc12)C(=O)N[C@@H](CC(C)C)C(=O)N[C@@H](CC(C)C)C(=O)N[C@@H](C)C(=O)N[C@@H](CCC(N)=O)C(=O)N[C@@H](CCCCN)C(N)=O)C(C)C)[C@@H](C)CC) [AT293 [hGIP(5-30)NH2[T5KK]-C16diacid/5]] |  |  | 0 | 14 | -7.8 |  |  |  | 
TFISDYSIAMDKIHQQDFVNWLLAQK(Palmitoyl)-NH2 (N-terminus assumed; SMILES CCCCCCCCCCCCCCCC(=O)NCCCC[C@H](NC(=O)[C@H](CCC(N)=O)NC(=O)[C@H](C)NC(=O)[C@H](CC(C)C)NC(=O)[C@H](CC(C)C)NC(=O)[C@H](Cc1c[nH]c2ccccc12)NC(=O)[C@H](CC(N)=O)NC(=O)[C@@H](NC(=O)[C@H](Cc1ccccc1)NC(=O)[C@H](CC(=O)O)NC(=O)[C@H](CCC(N)=O)NC(=O)[C@H](CCC(N)=O)NC(=O)[C@H](Cc1c[nH]cn1)NC(=O)[C@@H](NC(=O)[C@H](CCCCN)NC(=O)[C@H](CC(=O)O)NC(=O)[C@H](CCSC)NC(=O)[C@H](C)NC(=O)[C@@H](NC(=O)[C@H](CO)NC(=O)[C@H](Cc1ccc(O)cc1)NC(=O)[C@H](CC(=O)O)NC(=O)[C@H](CO)NC(=O)[C@@H](NC(=O)[C@H](Cc1ccccc1)NC(=O)[C@@H](N)[C@@H](C)O)[C@@H](C)CC)[C@@H](C)CC)[C@@H](C)CC)C(C)C)C(N)=O) [AT126 [hGIP(5-30)NH2-C16/30]] |  |  |  |  |  | 7790 | -5.1 log M |  | 
{C18 fatty acyl}-TFISDYSIAMDKIHQQDFVNWLLAQK-NH2 [AT127 [hGIP(5-30)NH2-C18/5]] |  |  |  |  |  | 2040 | -5.7 log M | 1470 | -5.8
TFISDYSIAMDRIK(C16 diacid)QQDFVNWLLAQR-NH2 (N-terminus assumed; SMILES CC[C@H](C)[C@H](NC(=O)[C@H](CO)NC(=O)[C@H](Cc1ccc(O)cc1)NC(=O)[C@H](CC(=O)O)NC(=O)[C@H](CO)NC(=O)[C@@H](NC(=O)[C@H](Cc1ccccc1)NC(=O)[C@@H](N)[C@@H](C)O)[C@@H](C)CC)C(=O)N[C@@H](C)C(=O)N[C@@H](CCSC)C(=O)N[C@@H](CC(=O)O)C(=O)N[C@@H](CCCNC(=N)N)C(=O)N[C@H](C(=O)N[C@@H](CCCCNC(=O)CCCCCCCCCCCCCCC(=O)O)C(=O)N[C@@H](CCC(N)=O)C(=O)N[C@@H](CCC(N)=O)C(=O)N[C@@H](CC(=O)O)C(=O)N[C@@H](Cc1ccccc1)C(=O)N[C@H](C(=O)N[C@@H](CC(N)=O)C(=O)N[C@@H](Cc1c[nH]c2ccccc12)C(=O)N[C@@H](CC(C)C)C(=O)N[C@@H](CC(C)C)C(=O)N[C@@H](C)C(=O)N[C@@H](CCC(N)=O)C(=O)N[C@@H](CCCNC(=N)N)C(N)=O)C(C)C)[C@@H](C)CC) [AT157 [hGIP(5-30)NH2[K16R; H18K; K30R]-C16diacid/18]] | 3 | -8 log M | 12 | 7 | -8.1 |  |  |  | 
TFISDYSIAMDK(C18 fatty acyl)IHQQDFVNWLLAQK-NH2 [AT128 [hGIP(5-30)NH2-C18/16]] |  |  |  |  |  | 466 | -6.3 log M |  | 
TFISDYSIAMDKIK(C16 diacid)QQDFVNWLLAQK-NH2 (N-terminus assumed; SMILES CC[C@H](C)[C@H](NC(=O)[C@H](CO)NC(=O)[C@H](Cc1ccc(O)cc1)NC(=O)[C@H](CC(=O)O)NC(=O)[C@H](CO)NC(=O)[C@@H](NC(=O)[C@H](Cc1ccccc1)NC(=O)[C@@H](N)[C@@H](C)O)[C@@H](C)CC)C(=O)N[C@@H](C)C(=O)N[C@@H](CCSC)C(=O)N[C@@H](CC(=O)O)C(=O)N[C@@H](CCCCN)C(=O)N[C@H](C(=O)N[C@@H](CCCCNC(=O)CCCCCCCCCCCCCCC(=O)O)C(=O)N[C@@H](CCC(N)=O)C(=O)N[C@@H](CCC(N)=O)C(=O)N[C@@H](CC(=O)O)C(=O)N[C@@H](Cc1ccccc1)C(=O)N[C@H](C(=O)N[C@@H](CC(N)=O)C(=O)N[C@@H](Cc1c[nH]c2ccccc12)C(=O)N[C@@H](CC(C)C)C(=O)N[C@@H](CC(C)C)C(=O)N[C@@H](C)C(=O)N[C@@H](CCC(N)=O)C(=O)N[C@@H](CCCCN)C(N)=O)C(C)C)[C@@H](C)CC) [AT156 [hGIP(5-30)NH2[H18K]-C16diacid/18]] | 2 | -9 log M | 12 | 12 | -7.9 |  |  |  | 
TFISDYSIAMDKIHQQDFVNWLLK(C16 diacid)QK-NH2 (N-terminus assumed; SMILES CC[C@H](C)[C@H](NC(=O)[C@H](CO)NC(=O)[C@H](Cc1ccc(O)cc1)NC(=O)[C@H](CC(=O)O)NC(=O)[C@H](CO)NC(=O)[C@@H](NC(=O)[C@H](Cc1ccccc1)NC(=O)[C@@H](N)[C@@H](C)O)[C@@H](C)CC)C(=O)N[C@@H](C)C(=O)N[C@@H](CCSC)C(=O)N[C@@H](CC(=O)O)C(=O)N[C@@H](CCCCN)C(=O)N[C@H](C(=O)N[C@@H](Cc1c[nH]cn1)C(=O)N[C@@H](CCC(N)=O)C(=O)N[C@@H](CCC(N)=O)C(=O)N[C@@H](CC(=O)O)C(=O)N[C@@H](Cc1ccccc1)C(=O)N[C@H](C(=O)N[C@@H](CC(N)=O)C(=O)N[C@@H](Cc1c[nH]c2ccccc12)C(=O)N[C@@H](CC(C)C)C(=O)N[C@@H](CC(C)C)C(=O)N[C@@H](CCCCNC(=O)CCCCCCCCCCCCCCC(=O)O)C(=O)N[C@@H](CCC(N)=O)C(=O)N[C@@H](CCCCN)C(N)=O)C(C)C)[C@@H](C)CC) [AT188 [hGIP(5-30)NH2[A28K]-C16diacid/28]] | 152 | -7 log M and -6.8 log M | 10 | 152 | -6.8 | 183 | -6.7 log M and -6.74 log M | 26300 | -4.6
